Assay results as given in the Immune Epitope Database (IEDB).

Key:
Assay in all cases: IEDB peptide-MHC binding, purified MHC/competitive/fluorescence; filed as Kd, often an IC50 or EC50 that approximates it; ≥ and ≤ were set here for values at or beyond the usual limits of such assays
Details in all cases: source organism: Plasmodium falciparum 3D7
[1] = target: HLA-B*07:02
[2] = target: HLA-A*24:02
[3] = target: HLA-A*02:01
[4] = target: HLA-A*01:01
[5] = target: HLA-A*03:01
[6] = target: HLA-B*44:02

Sequence: RNIISKHTSV
- Kd [1]: ≥ 505 µM

Sequence: YTIGLPPYI
- Kd [2]: 6.57 µM
- Kd [3]: 2.46 µM

Sequence: NLFFQNKSI
- Kd [3]: ≥ 1000 µM

Sequence: ITNKNKVTIY
- Kd [4]: ≥ 1000 µM
- Kd [5]: 8.72 µM

Sequence: NYNNDQYNI
- Kd [2]: 6.54 µM

Sequence: YYPIIRKQF
- Kd [2]: 0.101 µM

Sequence: NENNTTYQY
- Kd [6]: 18.4 µM

Sequence: RLNLFCFSF
- Kd [6]: ≥ 1000 µM
- Kd [2]: 11 µM

Sequence: GIANDLSTL
- Kd [3]: 5.73 µM

Sequence: TSKQGSSNKY
- Kd [4]: ≥ 1000 µM

Sequence: KLPPLLNEI
- Kd [2]: 0.0887 µM
- Kd [3]: 2.66 µM

Sequence: MYHNKEFDF
- Kd [2]: 4.51 µM

Sequence: KTCKYYCFK
- Kd [5]: ≥ 116 µM

Sequence: EENLFEWSKT
- Kd [6]: ≥ 1000 µM

Sequence: LISRLTLKY
- Kd [4]: 11.5 µM

Sequence: SLTHKYNEF
- Kd [2]: 12.6 µM

Sequence: GLSPHDTMQK
- Kd [5]: 1.1 µM

Sequence: MENEDVEFI
- Kd [6]: ≥ 36.9 µM

Sequence: LLNSDRRDL
- Kd [1]: 0.2 µM

Sequence: LISTDIIFL
- Kd [3]: 0.614 µM

Sequence: ALNLFFQNK
- Kd [5]: 1.14 µM

Sequence: KPNFWRFQDY
- Kd [1]: ≥ 1000 µM

Sequence: SIASKNLMWV
- Kd [1]: ≥ 1000 µM
- Kd [5]: ≥ 1000 µM
- Kd [3]: ≥ 284 µM

Sequence: LTHKYNEFV
- Kd [4]: ≥ 174 µM
- Kd [3]: 2.41 µM

Sequence: YPIEKLGHV
- Kd [1]: 0.257 µM

Sequence: QVFDYPIEK
- Kd [5]: 1.57 µM

Sequence: NPVQLKSKF
- Kd [1]: ≥ 59.6 µM

Sequence: DDTFEVYSEY
- Kd [6]: ≥ 1000 µM
- Kd [4]: ≥ 1000 µM

Sequence: FIDPQTEMFK
- Kd [4]: ≥ 46.6 µM
- Kd [5]: 8.1 µM

Sequence: LFGDENFSF
- Kd [2]: 5.87 µM

Sequence: TMANQNMNYK
- Kd [5]: 0.209 µM

Sequence: KLYSINSKSI
- Kd [1]: ≥ 225 µM
- Kd [3]: ≥ 57.7 µM

Sequence: FLLNLLNEHV
- Kd [3]: 1.68 µM

Sequence: NLFEWSKTV
- Kd [3]: 1.62 µM

Sequence: LSSNIENIY
- Kd [4]: ≥ 29.6 µM

Sequence: SHPKYRNFKF
- Kd [2]: 16.6 µM

Sequence: RISGWKGDNK
- Kd [5]: 0.548 µM

Sequence: ASFSASTGY
- Kd [6]: ≥ 31.7 µM
- Kd [4]: ≥ 1000 µM
- Kd [5]: 2.37 µM

Sequence: NTVKCPNDY
- Kd [4]: ≥ 282 µM

Sequence: TYSIYTNFKN
- Kd [2]: ≥ 26.6 µM

Sequence: RSKKTFLVK
- Kd [5]: 0.409 µM

Sequence: DENLKAIQI
- Kd [6]: ≥ 91.3 µM

Sequence: NYKQNNFPF
- Kd [2]: 9.49 µM

Sequence: EWLKTCKYYC
- Kd [2]: ≥ 578 µM

Sequence: NLNLCGKYTK
- Kd [5]: ≥ 1000 µM

Sequence: TIYGKGGFQF
- Kd [1]: ≥ 109 µM

Sequence: KEDDTFEVY
- Kd [4]: ≥ 1000 µM

Sequence: YESQLGGKI
- Kd [6]: ≥ 66.3 µM

Sequence: NMYQQNIPL
- Kd [3]: ≥ 331 µM

Sequence: VIHYGINPV
- Kd [3]: 1.7 µM

Sequence: FPKLLNKPSL
- Kd [1]: ≥ 73.1 µM

Sequence: SILISRLTL
- Kd [6]: ≥ 1000 µM

Sequence: YITNKNKVTI
- Kd [3]: ≥ 1000 µM

Sequence: AEISRNDLI
- Kd [6]: 4.53 µM

Sequence: LPIEPKKLA
- Kd [1]: ≥ 561 µM

Sequence: SPHDTMQKDD
- Kd [1]: ≥ 1000 µM

Sequence: DSDDLKESY
- Kd [4]: 2.6 µM

Sequence: SLTHKYNEFV
- Kd [3]: ≥ 182 µM

Sequence: MDFPKLLNK
- Kd [5]: 2.08 µM

Sequence: NSDKLDLIY
- Kd [4]: 0.875 µM

Sequence: IYGKGGFQF
- Kd [2]: 0.163 µM

Sequence: FLENFNFPL
- Kd [4]: ≥ 1000 µM
- Kd [3]: 3.68 µM

Sequence: FPPNTFDAL
- Kd [1]: 2.72 µM

Sequence: TMANQNMNY
- Kd [4]: 2.02 µM
- Kd [5]: 0.943 µM

Sequence: IWYKYTESDF
- Kd [2]: 1.12 µM

Sequence: PFLKSGFTF
- Kd [2]: 8.32 µM

Sequence: KYDPRISGW
- Kd [2]: 5.01 µM

Sequence: SSANDEQSY
- Kd [4]: ≥ 65 µM

Sequence: SISDYTKSL
- Kd [3]: ≥ 352 µM

Sequence: NEEIIDLLNL
- Kd [6]: ≥ 433 µM

Sequence: FCFSFLKSSK
- Kd [5]: 9.21 µM

Sequence: FDNSGISLL
- Kd [6]: ≥ 1000 µM
- Kd [3]: ≥ 229 µM

Sequence: RLNLFCFSFL
- Kd [6]: ≥ 421 µM
- Kd [5]: 6.12 µM
- Kd [3]: ≥ 161 µM

Sequence: NMNYKQNNF
- Kd [2]: 14.7 µM

Sequence: KEEKEINDEY
- Kd [6]: ≥ 1000 µM

Sequence: STDIIFLTMK
- Kd [4]: ≥ 1000 µM
- Kd [5]: 8.78 µM

Sequence: NNNFRNNMY
- Kd [4]: ≥ 1000 µM

Sequence: KNYDNYNMK
- Kd [5]: 2.51 µM

Sequence: LLFQKAANL
- Kd [3]: 1.88 µM

Sequence: SMTNIPMNV
- Kd [3]: 0.244 µM

Sequence: FTNVNQFFK
- Kd [4]: ≥ 1000 µM
- Kd [5]: 0.921 µM

Sequence: HYGINPVQL
- Kd [2]: 6.79 µM

Sequence: NTFDALYYV
- Kd [4]: ≥ 1000 µM
- Kd [3]: 8.76 µM

Sequence: KMKSDQYPI
- Kd [2]: 6.9 µM
- Kd [3]: 3.07 µM

Sequence: HPKYRNFKF
- Kd [1]: 0.336 µM

Sequence: TTFFESVSY
- Kd [4]: ≥ 338 µM
- Kd [5]: ≥ 658 µM

Sequence: HPFLKSGFTF
- Kd [1]: 0.226 µM
- Kd [6]: ≥ 1000 µM
- Kd [2]: 10.5 µM

Sequence: IENNLYERL
- Kd [6]: ≥ 60.1 µM

Sequence: ILYKNIDCV
- Kd [3]: 1.4 µM

Sequence: DTFEVYSEY
- Kd [4]: ≥ 1000 µM
- Kd [5]: ≥ 1000 µM

Sequence: NSPNVNKRY
- Kd [4]: ≥ 1000 µM

Sequence: IPPQVFDYPI
- Kd [1]: ≥ 245 µM

Sequence: HPMPINIKL
- Kd [1]: 0.168 µM

Sequence: SESTSTYNT
- Kd [6]: ≥ 103 µM

Sequence: LTMKMINNK
- Kd [5]: 0.472 µM

Sequence: TEMFKLRLNL
- Kd [1]: ≥ 1000 µM
- Kd [6]: ≥ 54.8 µM
- Kd [2]: ≥ 58.2 µM

Sequence: RSSGSTFSIK
- Kd [5]: 0.326 µM

Sequence: YGKGGFQFVF
- Kd [2]: 0.231 µM

Sequence: WLNNDIYNV
- Kd [3]: 0.16 µM

Sequence: SKHPFLKSGF
- Kd [6]: ≥ 1000 µM

Sequence: CRDKTSALY
- Kd [4]: ≥ 1000 µM

Sequence: RLNNRSIYK
- Kd [5]: 0.224 µM

Sequence: ILISRLTLK
- Kd [5]: 0.22 µM

Sequence: HYNTYKNRVF
- Kd [2]: 3 µM

Sequence: TEYFKNKNM
- Kd [6]: ≥ 31.4 µM
